Assay [1] has as its target T1, Human CD19-his protein (human, UniProt P15391 20-291).
T1 construct: bought protein; also called human CD19 protein; recombinant human CD19-His; not shown: His tag
T1 sequence (looked up): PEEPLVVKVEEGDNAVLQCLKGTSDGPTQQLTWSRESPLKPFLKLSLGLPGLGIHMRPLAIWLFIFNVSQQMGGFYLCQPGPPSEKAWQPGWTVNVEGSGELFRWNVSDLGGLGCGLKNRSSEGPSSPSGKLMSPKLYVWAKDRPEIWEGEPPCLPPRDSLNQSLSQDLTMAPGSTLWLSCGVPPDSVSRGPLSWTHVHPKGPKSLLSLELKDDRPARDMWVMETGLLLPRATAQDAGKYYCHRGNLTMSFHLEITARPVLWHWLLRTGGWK
Put plainly: ELISA, antibody at 100 nM. A general note: An ELISA detects its analyte on a solid surface through an enzyme-linked reagent.

Assay [2] deals with T1, Human CD19-his protein. Put plainly: ELISA, antibody at 1.00 nM.
Assay [3] addresses T1, Human CD19-his protein. The assay can be described thus: ELISA, antibody at 0.0001 nM.
In assay [4] the target is T1, Human CD19-his protein. The assay can be described thus: ELISA on coated human CD19-His. The method, then:
Human CD19-his protein (purchased from ACROBiosystems, catalog number: CD9-H52H2) was diluted with PBS to a final concentration of 4 μg/mL, and then added to a 96-well ELISA plate at 100 μl/well. The plate was sealed with a plastic film and incubated overnight at 4° C., the plate was washed 2 times with PBS the next day, and then a blocking solution [PBS+2% (w/w) BSA] was added for blocking at room temperature for 2 h. The blocking solution was poured off, and 100 nM gradiently diluted CD19 chimeric antibody or control antibody was added at 50 μl/well. After incubation at 37° C. for 2 h, the plate was washed 3 times with PBS. […] TMB substrate was added at 50 μl/well, and incubated at room temperature for 10 min, and then a stop solution (1.0 N HCl) was added at 50 μl/well. The OD450 nm values were read by an ELISA microplate reader (Multimode Plate Reader, EnSight, purchased from Perkin Elmer).

Assay [5] deals with T1, Human CD19-his protein. The assay can be described thus: ELISA, antibody at 10 nM.
Another assay deals with T2, murine CD19 protein (murine, UniProt P25918 17-287, limits assumed).
T2 construct: bought protein; also called commercial murine CD19
T2 sequence (looked up): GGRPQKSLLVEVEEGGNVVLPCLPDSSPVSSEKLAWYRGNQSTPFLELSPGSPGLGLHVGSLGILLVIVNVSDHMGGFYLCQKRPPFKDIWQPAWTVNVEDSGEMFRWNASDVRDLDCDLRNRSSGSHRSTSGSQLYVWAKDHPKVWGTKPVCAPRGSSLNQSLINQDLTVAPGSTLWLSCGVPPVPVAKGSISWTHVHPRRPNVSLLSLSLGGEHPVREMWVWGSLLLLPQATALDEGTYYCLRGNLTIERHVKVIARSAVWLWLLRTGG
Put plainly: ELISA, coated murine CD19. Summed up: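 Plates coated overnight at 4° C with recombinant murine or monkey CD19 and blocked with 2% BSA. Chimeric antibodies, serially diluted from 100 nM, bound for 2 h at 37° C. TMB development for 10 min with OD450 read-out.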

Assay [6] has as its target T1, Human CD19-his protein. Put plainly: ELISA, antibody at 0.01 nM.
Assay [7] deals with T1, Human CD19-his protein. The assay can be described thus: ELISA, antibody at 0.001 nM.
Assay [8] addresses T1, Human CD19-his protein. The assay can be described thus: ELISA, antibody at 0.10 nM.
In assay [9] the target is T3, human CD19 exon1-3-his protein (human, UniProt P15391 20-186, limits assumed).
T3 construct: made in HEK293E cells; also called membrane-distal end; not shown: His tag
T3 sequence (looked up): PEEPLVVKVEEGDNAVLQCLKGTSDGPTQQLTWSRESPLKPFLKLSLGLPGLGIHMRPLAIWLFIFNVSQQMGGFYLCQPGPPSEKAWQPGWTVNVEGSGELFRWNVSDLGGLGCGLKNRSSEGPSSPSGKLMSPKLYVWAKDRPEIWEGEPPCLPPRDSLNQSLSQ
The assay can be described thus: ELISA, coated at 2 ug/mL.

The results in this text go back to patent publication US20250042994A1 (HAINAN SIMCERE ZAIMING PHARMACEUTICAL, published 2025).

B1: F3.124.7 (antibody, human IgG1, V domains shown)
VH: EVQLQQSGPVLVKPGASVKMSCKASGYTFTDYYMNWVKQRHGKSLEWIGISNPYNGGTSYNQKFKDKATLTVDKSSSTAYMELNSLTSEDSAVYYCAREGGTAQPTSGMDYWGQGTSVTVSS
VL: NIMMTQSPSSLAVSAGEKVTMSCKSSQSVLYSSNQKNYLAWYQQKPGQSPKLLIYWASTRESGVPDRFTGSGSGTDFTLTISSVQPEDPAVYYCHQYRSSYTFGGGTKLEIK
notes: human-murine chimeric antibody, human IgG1
B1: the OD450 was 2.75 with Human CD19-his protein [1]; 2.6 with Human CD19-his protein [2]; 0.08 in the assay with Human CD19-his protein [3]; 2.63 in the assay with Human CD19-his protein [5]; 0.81 with Human CD19-his protein [6]; 0.18 with Human CD19-his protein [7]. The same molecule had an OD450 with Human CD19-his protein [8] of 2.08. Further, the EC50 (read off the curve) (usually the concentration that produces a half-maximal response) with Human CD19-his protein [4] was roughly 0.03 nM. Moreover, the binding result in the assay with murine CD19 protein was “no binding”.

B2: F4.4.6 (antibody, human IgG1, V domains shown)
VH: QVQLQQSGAELARPGASVKLSCKASGYTFTSYWMQWVKQRPGQGLEWIGAIYPGDGDSRYTQKFKGKATLTADKSSSTAYMQLSSLASEDSAVYYCARSTTTVLGNNFEYWGQGTTLTVSS
VL: QIVLTQSPAIMSALPGEKVTMTCSASSSVSSMHWYQQKSGTSPKRWIYDTSKLASGVPARFSGSGSGTSYSLTISSMEAEDAATYYCQQWSSNPWTFGGGTKLEIK
notes: as for B1
As for B2, the OD450 with Human CD19-his protein [1] was 0.79; in the assay with Human CD19-his protein [2], 0.6; in the assay with Human CD19-his protein [3], 0.05; with Human CD19-his protein [5], 0.58; in the assay with Human CD19-his protein [6] it was 0.1; in the assay with Human CD19-his protein [7], 0.06. This molecule also came in with an OD450 in the assay with Human CD19-his protein [8] of 0.37. The binding result (in assay [9]; with murine CD19 protein) was “no binding” in each case. Besides, the “EC50 (read off the curve)” value with Human CD19-his protein [4] was roughly 0.1 nM.

B3: F4.78.1 (antibody, human IgG1, V domains shown)
VH: QVQIQQSGAELARPGASVKLSCKASGYTFTNYWMQWIKQRPGQGLEWIGAIYPGDGDTRYTQKFKGKATLTADKSSSTAYMQLSSLASEDSAVYYCAREEVWSPYGMDYWGQGTSVTVSS
VL: QIVLTQSPAIMSASPGEKVTITCSASSSVSYMGWFQQKPGTSPKLWIYSTSNLASGVPARFSGSGSGTSYSLTISRMEAEDAATYYCQQRSIYPLTFGAGTKLELK
notes: as for B1
B3: the OD450 in the assay with Human CD19-his protein [1] turned out to be 1.87; with Human CD19-his protein [2], 1.73; with Human CD19-his protein [3], 0.06; with Human CD19-his protein [5], 1.94; in the assay with Human CD19-his protein [6], 0.23; in the assay with Human CD19-his protein [7], 0.08. Further, the OD450 in the assay with Human CD19-his protein [8] came to 1.09. In addition, the binding result (in assay [9]; with murine CD19 protein) was “no binding” throughout. Further, the “EC50 (read off the curve)” value with Human CD19-his protein [4] is roughly 0.07 nM.

B4: F4.125.12 (antibody, human IgG1, V domains shown)
VH: EVKLVESGGGLVQPGGSLKLSCAASGFTFSTYTMSWVRQTPEKRLEWVAFISSGGGHINYPDTVKGRFTISRDNAKNTLYLQMSSLKSEDTAMYYCARHSYWFFDVWGAGTTVTVSS
VL: DVQITQSPSYLAASPGETITINCRASKNIDTYLAWYQEKPGKTNKLLIYSGSTLQSGIPSRFRGGGSGTDFTLTICSLEPEDFAMYYCQQHNEYPLTFGAGTKLELK
notes: as for B1
B4: the OD450 in the assay with Human CD19-his protein [1] stood at 1.84; with Human CD19-his protein [2], 1.68; with Human CD19-his protein [3] it was 0.06; in the assay with Human CD19-his protein [5], 1.54; in the assay with Human CD19-his protein [6], 0.23; with Human CD19-his protein [7] it was 0.09. The same molecule had an OD450 with Human CD19-his protein [8] of 1.07. The binding result (in [9]; with murine CD19 protein) was “no binding” in each case. Besides, in the assay with Human CD19-his protein [4], the “EC50 (read off the curve)” value was roughly 0.06 nM.

B5: F3.109.1 (antibody, human IgG1, V domains shown)
VH: EVQLQQSGAELVRPGSSVKMSCKTSGYTFTSYGINWVKQRPGQGLEWIGYIYIGNDYTEFNEKFKGKATLTSDTSSSTAYMQLSSLTSEDSAIYFCARFYSNSDPMDYWGHGTSVTVSS
VL: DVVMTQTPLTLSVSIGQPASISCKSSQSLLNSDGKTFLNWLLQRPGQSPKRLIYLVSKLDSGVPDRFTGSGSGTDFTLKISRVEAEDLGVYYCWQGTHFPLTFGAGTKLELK
notes: as for B1
As to B5, the OD450 in the assay with Human CD19-his protein [1] amounted to 2.98; with Human CD19-his protein [2] it was 2.62; with Human CD19-his protein [3] it was 0.05; with Human CD19-his protein [5] it was 2.92; with Human CD19-his protein [6] it was 0.24; with Human CD19-his protein [7] it was 0.07. Also, in the assay with Human CD19-his protein [8], the OD450 was 1.18. Further, the “EC50 (read off the curve)” value in the assay with Human CD19-his protein [4] is roughly 0.2 nM. The binding result in the assay with murine CD19 protein is recorded as “no binding”.

B6: F3.148.10 (antibody, human IgG1, V domains shown)
VH: EVQLQQSGAELVRPGSSVTMSCKTSGYTFTNYGINWVKQRPGQGLEWIGYIFIGNDYTEYNEKFKGKATLTSDTSSSTAYMQLSSLTSEDSAIYFCTRFYSNYYGMDPWGQGTSVTVSS
VL: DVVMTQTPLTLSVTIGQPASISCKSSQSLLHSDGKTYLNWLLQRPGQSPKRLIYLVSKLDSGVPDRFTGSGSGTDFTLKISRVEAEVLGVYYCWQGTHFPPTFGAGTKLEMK
notes: as for B1
Consider B6, for which the OD450 is 3.01 with Human CD19-his protein [1]; 2.66 with Human CD19-his protein [2]; 0.05 with Human CD19-his protein [3]; 2.94 with Human CD19-his protein [5]; 0.22 with Human CD19-his protein [6]; 0.07 with Human CD19-his protein [7]. The same molecule displayed an OD450 with Human CD19-his protein [8] of 0.98. Moreover, in the assay with Human CD19-his protein [4], the “EC50 (read off the curve)” value is roughly 0.2 nM. For the same molecule, in the assay with murine CD19 protein, the binding result is recorded as “no binding”.

B7: F3.118.14 (antibody, human IgG1, V domains shown)
VH: QVQLQQSGAELVRPGASVTLSCKASGYTFPDYEIHWVKQTPVHGLEWIGAIDPETGGIGYNQKFTGKAMLTADKSSSTAYMELRSLTSEDSAVYFCTRNYGSRWGQGSTLTVSS
VL: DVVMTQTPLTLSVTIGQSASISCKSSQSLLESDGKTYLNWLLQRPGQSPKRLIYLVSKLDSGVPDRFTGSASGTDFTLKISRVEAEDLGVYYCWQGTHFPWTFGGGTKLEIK
notes: as for B1
Turning to B7, the OD450 in the assay with Human CD19-his protein [1] was 3.21; with Human CD19-his protein [2] it was 2.27; in the assay with Human CD19-his protein [3] it was 0.05; with Human CD19-his protein [5] it was 2.9; with Human CD19-his protein [6], 0.19; with Human CD19-his protein [7], 0.07. This molecule showed an OD450 in the assay with Human CD19-his protein [8] of 1.02. The “EC50 (read off the curve)” value with Human CD19-his protein [4] is roughly 0.3 nM. Moreover, the binding result with murine CD19 protein was “no binding”.

B8: F4.107.12 (antibody, human IgG1, V domains shown)
VH: EVQLQQSGPELVKPGASVKMSCKASGYTFTSYVLHWVRQKPGQGLEWIGYFNPYNDGTEYNEKFKGKAILTSDKSSSTAYMELNSLTSEDSAVYYCVGGTYYYGSSYPFAYWGQGTLVTVST
VL: DVVMTQISLSLPVSLGDQASISCRSSQSLIHSNGNTYLQWYLQKPGQSPKLLIYKVSNRLSGVPDRFSGSGSGTDFTLKISRVEAEDLGVYFCSQSTHVPYTFGGGTKLEIK
notes: as for B1
For the molecule B8, the OD450 worked out at 1.77 in the assay with Human CD19-his protein [1]; 1.93 with Human CD19-his protein [2]; 0.05 with Human CD19-his protein [3]; 1.75 with Human CD19-his protein [5]; 0.27 with Human CD19-his protein [6]; 0.08 with Human CD19-his protein [7]. This molecule also registered an OD450 with Human CD19-his protein [8] of 1.33. Also, the binding result (in assay [9]; with murine CD19 protein) was “no binding” in each case. The “EC50 (read off the curve)” value with Human CD19-his protein [4] is roughly 0.04 nM.

B9: F4.82.11 (antibody, human IgG1, V domains shown)
VH: QVTLKESGPGILQASQTLSLTCSFSGFSLSTFGIGVGWVRQPSGKGLEWLAHIWWNDNKFFNTTLKNRLTLSKDPSNNQVFLKIASVDTADTATYYCARSRSALITTGLYAMDYWGQGTSVTVSS
VL: DIQMTQTPSSLSASLGDRVTISCRSSQDISNYVNWYQQKPDGTVKVLINYTSRLHSGVPSRFSGSGSGTDYSLTISNLEQEDIASYFCQQGFTLPYTFGGGTKLEIK
notes: as for B1
With B9, the OD450 with Human CD19-his protein [1] worked out at 1.52; with Human CD19-his protein [2], 1.6; with Human CD19-his protein [3], 0.09; with Human CD19-his protein [5], 1.55; in the assay with Human CD19-his protein [6], 0.24; with Human CD19-his protein [7], 0.18. Besides, in the assay with Human CD19-his protein [8], the OD450 turned out to be 0.85. In addition, the binding result (in assay [9]; in the assay with murine CD19 protein) was “no binding” each time. The “EC50 (read off the curve)” value in the assay with Human CD19-his protein [4] was roughly 0.08 nM.
